The record followed here is US20190300875A1 (University of California, published 2019).

The labels stand for the following.
B5: Arabidopsis cryptochrome 2 (CRY2) (receptor)
chain: MKMDKKTIVWFRRDLRIEDNPALAAAAHEGSVFPVFIWCPEEEGQFYPGRASRWWMKQSLAHLSQSLKALGSDLTLIKTHNTISAILDCIRVTGATKVVFNHLYDPVSLVRDHTVKEKLVERGISVQSYNGDLLYEPWEIYCEKGKPFTSFNSYWKKCLDMSIESVMLPPPWRLMPITAAAEAIWACSIEELGLENEAEKPSNALLTRAWSPGWSNADKLLNEFIEKQLIDYAKNSKKVVGNSTSLLSPYLHFGEISVRHVFQCARMKQIIWARDKNSEGEESADLFLRGIGLREYSRYICFNFPFTHEQSLLSHLRFFPWDADVDKFKAWRQGRTGYPLVDAGMRELWATGWMHNRIRVIVSSFAVKFLLLPWKWGMKYFWDTLLDADLECDILGWQYISGSIPDGHELDRLDNPALQGAKYDPEGEYIRQWLPELARLPTEWIHHPWDAPLTVLKASGVELGTNYAKPIVDIDTARELLAKAISRTREAQIMIGAAPDEIVADSFEALGANTIKEPGLCPSVSSNDQQVPSAVRYNGSKRVKPEEEEERDMKKSRGFDERELFSTAESSSSSSVFFVSQSCSLASEGKNLEGIQDSSDQITTSLGKNGCK
notes: also called AT1G04400

In one data set the target is FLUC-CRY2 (Arabidopsis) (UniProt Q96524). The data set can be described thus: quantitative co-IP (dual-luciferase), anti-Flag beads, HEK293T cells, blue light 30 µmol m^-2 s^-1.
The target of the next data set is T1, Flag-hCRY1 (human, UniProt Q16526 1-586).
T1 construct: this is the CRY1 form; not shown: Flag tag
T1 sequence (looked up): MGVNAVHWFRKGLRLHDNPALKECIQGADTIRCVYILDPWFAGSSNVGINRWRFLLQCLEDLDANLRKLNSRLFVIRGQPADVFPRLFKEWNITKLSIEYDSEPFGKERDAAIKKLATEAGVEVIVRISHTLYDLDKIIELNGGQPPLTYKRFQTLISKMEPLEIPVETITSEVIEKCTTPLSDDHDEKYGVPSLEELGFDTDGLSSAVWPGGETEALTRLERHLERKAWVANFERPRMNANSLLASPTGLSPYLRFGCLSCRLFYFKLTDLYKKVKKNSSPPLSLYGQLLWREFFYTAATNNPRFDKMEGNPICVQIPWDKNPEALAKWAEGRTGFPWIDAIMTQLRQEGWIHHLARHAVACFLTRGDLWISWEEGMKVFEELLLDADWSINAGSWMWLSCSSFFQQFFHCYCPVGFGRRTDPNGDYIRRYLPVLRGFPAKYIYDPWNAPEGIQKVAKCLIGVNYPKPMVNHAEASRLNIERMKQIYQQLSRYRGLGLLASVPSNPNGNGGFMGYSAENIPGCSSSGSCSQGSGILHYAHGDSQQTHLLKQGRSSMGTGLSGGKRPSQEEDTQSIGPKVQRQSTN
The data set can be described thus: co-IP with anti-Flag beads, HEK293T cells (FIG. 11). As for the experimental part:
In FIG. 11, HEK293T cells coexpressing Flag-hCRY, Myc-hCRY and GFP-BIC1 or GFP were exposed to 100 μmol m⁻² s⁻¹ blue light for 2 hours (+) or kept in the dark (−). Anti-Flag antibody conjugated beads were used to perform the immunoprecipitations. Flag-hCRY (IP signal) and Myc-hCRY or GFP-BIC1 (co-IP signals) were detected by Flag and Myc or GFP antibody, respectively. […]

Data set [1] concerns the target B5. The data set can be described thus: summary of the examples.
For another data set, the target named is T2, Flag-CRY2 (Arabidopsis, UniProt Q96524 1-612).
T2 construct: not shown: Flag tag
The data set can be described thus: co-IP with antibody to Flag, HEK293T cells, dark. The text has this: Homodimers are the physiologically active form of plant CRYs (8, 9), but the effect of light on CRY dimerization has not been detected in previous studies (9, 20). This could be explained by, among other interpretations, light-independent CRY dimerization or masking effects of regulatory proteins, such as BICs, on the light-dependent CRY dimerization (9, 20). We reexamined the bluelight dependence of CRY2 dimerization using multiple approaches. In the first experiment, we coexpressed Flag-CRY2 and Myc-CRY2 in HEK293T cells (21-24) and tested the interaction between the two differentially tagged CRY2s by co-IP assay. In the absence of blue light, antibody to Flag coprecipitated little Myc-CRY2 from HEK293T cells expressing similar amounts of Flag-CRY2 and Myc-CRY2 (FIG. 4B and FIG. S12A of Wang et al).

Data set [2] deals with T3, GFP-CRY2 (CRY2 fused to green fluorescent protein) (Arabidopsis, UniProt Q96524 1-612).
T3 construct: Expressed in Arabidopsis plants together with Myc-CRY2; not shown: green fluorescent protein
The data set can be described thus: co-IP with GFP-Trap-A from etiolated seedlings co-expressing Myc-CRY2 and GFP-CRY2, blue light 20 sec to 10 min (FIG. 9A). The text has this:
GFP-Trap-A were used to immunoprecipitate GFP-CRY2. GFP-CRY2 (IP signal) and Myc-CRY2 (co-IP signal) were detected by GFP or Myc antibody, respectively. […] HEK293T cells co-expressing FLUC-CRY2 and REN-CRY2 were exposed to blue light (30 μmol·m⁻²·s⁻¹) for the time indicated, lysed, aliquots removed for the measurement of ATL (Adjusted Total Luminescence), and FLUC-CRY2 precipitated by anti-Flag antibody conjugated beads. Photodimerization of CRY2 was quantified by the dual-luciferase assay to calculate the Normalized Dimerization Ratio (NDR) by the formula: NDR=[(REN/LUC)L/(REN/LUC)D]/ATL, where LUC is the LUC luminescence detected for the precipitated FLUC-CRY2, REN is the REN luminescence detected for the co-precipitated REN-CRY2. (REN/LUC)L or (REN/LUC)D were measured in cells exposed to light or darkness, respectively. ATL (Adjusted Total Luminescence) is the cell volume-adjusted sum of LUC and REN luminescence of the cell lysates before immunoprecipitation, in which REN luminescence is converted to the LUC equivalent by the standard curve prepared by analyses of the LUC-REN fusion protein (not shown). ATL represents concentration of the CRY2 protein. […] Flag-CRY2 (IP signal) and Myc-CRY2 or GFP-BIC1 (co-IP signals) were detected by Flag and Myc or GFP antibody, respectively. […]

Data set [3] deals with the molecule itself. The data set can be described thus: yeast β-gal assay (FIG. 4A); also immunoblots of HEK293FT lysates (4B, 4C) and plant nuclear proteins (4D, 4E) after blue light. The text has this: FIG. 4 provides data showing redox-dependent CRY dimerization, and blue-light-induced CRY and BIC interaction. (FIG. 4A) The β-galactosidase (β-gal) assay showing the blue-light-dependent formation of CRY2 dimer. Yeast cells were kept in darkness (D) or illuminated with blue light (B5, 5 μmol m⁻² s⁻¹; B25, 25 μmol m⁻² s⁻¹; B50, 50 μmol m⁻² s⁻¹) for the indicated time. (FIG. 4B) Immunoblot showing the blue-light-induced dimerization of CRY2 expressed in HEK293FT (H293) cells. The cells were lysed, divided into 12 samples and irradiated by blue light (40 μmol m⁻²s⁻¹) for the indicated durations. For β-mercaptoethanol (2-Me) treatment, 6 samples were added with 2-Me to 5% (v/v), and then all the samples were analyzed by western blot using anti-CRY2 antibody. CRY2, monomeric CRY2; (CRY2)2, CRY2 dimer; (CRY2)ₙ, CRY2 oligomer. (FIG. 4C) The H293 cell lysate were prepared in dark, irradiated with blue light for the durations indicated. For the NEM treatment, the samples were added with NEM (50 mM), and then the samples were analyzed by western blot using anti-CRY2 antibody. (FIGS. 4D and E) Dimerization and oligomerization of CRY2 proteins are blue light-induced in vivo. […]

Data set [4] concerns the molecule itself. The data set can be described thus: co-IP, HEK293T cells, control experiment.

With REN-CRY2, in the data set with FLUC-CRY2 (Arabidopsis), the Maximum Photodimerization (Dm, maximum Normalized Dimerization Ratio) stood at 4.7 and the Rate of Photodimerization (D1/2) was found to be 1 min.

B1: GFP-BIC1 (other)
chain: MMNIDDTTSPMAHPIGPSQPPSDQTKQDPPSLPQEAASSVSADKKDLALLEEKPKQSQEEDRVDTGRERLKKHRREIAGRVWIPEIWGQEELLKDWIDCSTFDTCLVPAGISSARTALVEEARRAASASGGLHNRCLILR
notes: Expressed in HEK293T cells; not shown: GFP
With B1, in the data set with Flag-hCRY1, the binding result is recorded as “binds”.

B2: Blue-light Inhibitor of Cryptochromes 1 (BIC1) (other)
chain: MMNIDDTTSPMAHPIGPSQPPSDQTKQDPPSLPQEAASSVSADKKDLALLEEKPKQSQEEDRVDTGRERLKKHRREIAGRVWIPEIWGQEELLKDWIDCSTFDTCLVPAGISSARTALVEEARRAASASGGLHNRCLILR
notes: also called Arabidopsis BIC1; AT3G52740
B2: the binding result in data set [1] is reported as “binds”.

B3: Blue-light Inhibitor of Cryptochromes 2 (BIC2) (other)
chain: MKNTNLPEETKEPISPGSSHRKQNKTGTKTCFPETTVLSGRDRLKRHREEVAGKVPIPDSWGKEGLLMGWMDFSTFDAAFTSSQIVSARAALMADSGDDAGARGSRPQRLRVESSC
notes: also called Arabidopsis BIC2; AT3G44450
Regarding B3, the binding result in data set [1] was “binds”.

B4: Myc-CRY2 (other)
chain: MKMDKKTIVWFRRDLRIEDNPALAAAAHEGSVFPVFIWCPEEEGQFYPGRASRWWMKQSLAHLSQSLKALGSDLTLIKTHNTISAILDCIRVTGATKVVFNHLYDPVSLVRDHTVKEKLVERGISVQSYNGDLLYEPWEIYCEKGKPFTSFNSYWKKCLDMSIESVMLPPPWRLMPITAAAEAIWACSIEELGLENEAEKPSNALLTRAWSPGWSNADKLLNEFIEKQLIDYAKNSKKVVGNSTSLLSPYLHFGEISVRHVFQCARMKQIIWARDKNSEGEESADLFLRGIGLREYSRYICFNFPFTHEQSLLSHLRFFPWDADVDKFKAWRQGRTGYPLVDAGMRELWATGWMHNRIRVIVSSFAVKFLLLPWKWGMKYFWDTLLDADLECDILGWQYISGSIPDGHELDRLDNPALQGAKYDPEGEYIRQWLPELARLPTEWIHHPWDAPLTVLKASGVELGTNYAKPIVDIDTARELLAKAISRTREAQIMIGAAPDEIVADSFEALGANTIKEPGLCPSVSSNDQQVPSAVRYNGSKRVKPEEEEERDMKKSRGFDERELFSTAESSSSSSVFFVSQSCSLASEGKNLEGIQDSSDQITTSLGKNGCK
notes: not shown: Myc tag
Take B4: the binding result (with Flag-CRY2; in data set [2]) was “binds” in each case.

As for B5, in data set [3], the binding result is reported as “binds”.

B6: human cryptochrome 1 (hCRY1) (other, UniProt Q16526 1-586, looked up)
chain: MGVNAVHWFRKGLRLHDNPALKECIQGADTIRCVYILDPWFAGSSNVGINRWRFLLQCLEDLDANLRKLNSRLFVIRGQPADVFPRLFKEWNITKLSIEYDSEPFGKERDAAIKKLATEAGVEVIVRISHTLYDLDKIIELNGGQPPLTYKRFQTLISKMEPLEIPVETITSEVIEKCTTPLSDDHDEKYGVPSLEELGFDTDGLSSAVWPGGETEALTRLERHLERKAWVANFERPRMNANSLLASPTGLSPYLRFGCLSCRLFYFKLTDLYKKVKKNSSPPLSLYGQLLWREFFYTAATNNPRFDKMEGNPICVQIPWDKNPEALAKWAEGRTGFPWIDAIMTQLRQEGWIHHLARHAVACFLTRGDLWISWEEGMKVFEELLLDADWSINAGSWMWLSCSSFFQQFFHCYCPVGFGRRTDPNGDYIRRYLPVLRGFPAKYIYDPWNAPEGIQKVAKCLIGVNYPKPMVNHAEASRLNIERMKQIYQQLSRYRGLGLLASVPSNPNGNGGFMGYSAENIPGCSSSGSCSQGSGILHYAHGDSQQTHLLKQGRSSMGTGLSGGKRPSQEEDTQSIGPKVQRQSTN
notes: Homodimerization tested with differently tagged copies (Flag-hCRY and Myc-hCRY) co-expressed in HEK293T cells; also called human CRY1
For B6, in data set [4], the binding result is reported as “binds”.
